Measured values from article PMC8085985.

Target: Fervidobacterium islandicum AW‐1 SufS family cysteine desulfurase (FiSufS) (Fervidobacterium islandicum AW-1)
Assay: SEC

Question: How did the stoichiometry N turn out when “Fervidobacterium islandicum AW‐1 SufS family cysteine desulfurase (FiSufS) (enzyme)” was run?
Answer: 2
